Measured values from patent publication US20250289896A1 (ANALYTICAL BIOSCIENCES SHANGHAI, published 2025).
Like-named read-outs stand apart in the source and are kept apart here.

Key:
[1] = target: T1, mCCR8 (UniProt P56484 1-353, limits assumed); test: flow cytometry, 293T cells with mCCR8
T1 construct: whole, on cells; also called 293T-mCCR8
T1 sequence (looked up): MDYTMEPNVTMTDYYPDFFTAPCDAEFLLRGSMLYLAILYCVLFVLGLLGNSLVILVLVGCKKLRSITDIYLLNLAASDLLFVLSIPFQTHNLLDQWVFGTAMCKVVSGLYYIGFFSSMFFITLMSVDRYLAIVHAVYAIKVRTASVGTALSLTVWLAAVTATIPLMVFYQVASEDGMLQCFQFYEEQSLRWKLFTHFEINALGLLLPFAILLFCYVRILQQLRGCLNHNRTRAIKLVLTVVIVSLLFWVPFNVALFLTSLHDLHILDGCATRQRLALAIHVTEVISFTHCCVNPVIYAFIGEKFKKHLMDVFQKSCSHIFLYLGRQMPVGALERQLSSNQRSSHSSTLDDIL
Procedure: (§1) Binding specificity of the anti-CCR8 antibodies (mAbs) was tested by FACS using several cell lines. […] The binding titration of the anti-CCR8 antibodies to CCR8 transfectants was performed by serial dilution of antibodies. The diluted antibody (50 μl) in flow cytometry buffer (PBS, 0.5% BSA, 1 mM EDTA) was incubated with cells (50 μl) at a concentration of 2 million cells/ml on ice for 30 min. After two washes with flow cytometry buffer, bound antibody was detected with Alexa647-labeled F(ab′)2 fragment goat anti-human IgG (Jackson ImmunoResearch #709-606-149) (1:500 dilution) for 20 minutes on ice. The fluorescence was measured on a Cytek Aurora cytometer, after two washes with flow cytometry buffer. The data were analyzed with GraphPad Prism 8.0 software to determine EC50 values.

[2] = target: T2, Human CCR8 (C-C chemokine receptor type 8) (human, UniProt P51685 1-355); test: flow cytometry, Hut78 cells (endogenous human CCR8)
T2 construct: overexpressed on HEK293T (293T-hCCR8), Jurkat-hCCR8 and CHEM1-CCR8 cells; also called hCCR8
T2 sequence (P51685 whole entry): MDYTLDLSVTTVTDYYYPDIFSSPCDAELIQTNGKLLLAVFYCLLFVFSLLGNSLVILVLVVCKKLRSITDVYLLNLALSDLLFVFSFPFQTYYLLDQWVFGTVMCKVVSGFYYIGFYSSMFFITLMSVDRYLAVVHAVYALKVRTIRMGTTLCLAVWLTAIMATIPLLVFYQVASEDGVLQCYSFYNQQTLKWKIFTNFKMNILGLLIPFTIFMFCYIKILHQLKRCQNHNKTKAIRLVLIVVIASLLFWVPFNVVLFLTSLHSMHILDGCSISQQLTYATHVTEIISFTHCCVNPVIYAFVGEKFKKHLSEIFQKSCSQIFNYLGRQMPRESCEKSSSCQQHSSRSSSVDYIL
Procedure: as §1

[3] = target: T2, Human CCR8 (C-C chemokine receptor type …); test: flow cytometry, 293T cells overexpressing human CCR8
Procedure: as §1

[4] = target: T3, cynomolgus macaque CCR8 (cynomolgus macaque, UniProt G7NYJ2 1-355); test: flow cytometry, 293T cells overexpressing cynomolgus CCR8
T3 construct: whole, on cells; Overexpressed on 293T cells (293T-cCCR8) and Jurkat cells (Jurkat-cynoCCR8); also called cCCR8; cyno CCR8
T3 sequence (G7NYJ2 entry or part of it): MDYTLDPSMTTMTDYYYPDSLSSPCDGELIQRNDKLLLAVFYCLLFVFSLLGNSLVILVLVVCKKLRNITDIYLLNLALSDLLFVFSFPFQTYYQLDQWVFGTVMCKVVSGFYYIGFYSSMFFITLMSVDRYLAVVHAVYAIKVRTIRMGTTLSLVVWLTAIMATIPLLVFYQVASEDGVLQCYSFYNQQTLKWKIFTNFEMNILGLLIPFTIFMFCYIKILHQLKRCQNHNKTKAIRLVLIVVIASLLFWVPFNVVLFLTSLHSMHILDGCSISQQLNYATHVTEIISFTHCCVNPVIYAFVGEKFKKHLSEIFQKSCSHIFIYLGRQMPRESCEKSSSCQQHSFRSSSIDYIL
Procedure: as §1

[5] = target: T3, cynomolgus macaque CCR8; test: as above; remark: listed apart in the source
Procedure: as §1

[6] = target: T2, Human CCR8 (C-C chemokine receptor type …); test: flow cytometry, 293T cells overexpressing human CCR8; remark: listed apart in the source
Procedure: as §1

[7] = target: T3, cynomolgus macaque CCR8; test: cell-based or functional assay
[8] = target: T2, Human CCR8 (C-C chemokine receptor type …); test: cell-based or functional assay
[9] = target: T2, Human CCR8 (C-C chemokine receptor type …); test: cell-based or functional assay; remark: listed apart in the source
[10] = target: T2, Human CCR8 (C-C chemokine receptor type …); test: flow cytometry, Hut78 cells (endogenous human CCR8); remark: listed apart in the source
Procedure: as §1

[11] = target: T2, Human CCR8 (C-C chemokine receptor type …); test: flow cytometry, human PBMC-derived activated Tregs
Procedure: (§2) 2.3 Cell-based binding assays for human PBMC-derived activated Tregs Binding specificity of the anti-CCR8 antibodies was tested by FACS using human PBMC-derived activated Tregs. In summary, Tregs were expanded and activated following the manufacturer's protocol (130-095-345, Miltenyi). Briefly, cryopreserved 7-day expanded human PBMC-derived Tregs (SailyBio) were thawed and rested overnight. They were then restimulated with CD3/CD28 MACSiBeads in the presence of rhIL-2 for 24 hours. […] Afterwards, the activated Tregs were plated at 20K/well in 96-well plates, spun down and the supernatant was removed. Cell pellets were then resuspended and incubated with 100 μl of various concentrations of mAbs or a human lgG1 isotype control antibody (biolegend #403501) at 37° C. for 30 min. The final concentrations of antibodies were indicated on x-axis in each figure. The cells were washed three times with FACS buffer (PBS containing 0.5 mg/ml BSA and 1 mM EDTA). PE-labeled goat-anti-human IgG (Invitrogen) diluted in FACS buffer was added to cell pellets as secondary antibodies at a concentration of 3 μg/ml, and the samples were incubated at 4° C. for 30 min. Samples were washed three times with FACS buffer and analyzed using a Cytek Aurora cytometer. Data were analyzed with GraphPad Prism 8.0 software to determine EC50 values.

[12] = target: T2, Human CCR8 (C-C chemokine receptor type …); test: flow cytometry, human PBMC-derived activated Tregs; remark: listed apart in the source
Procedure: as §2
Especially, FIG. 6 and Table 6 show the titration of anti-CCR8 mAbs ABC138-H2.hu13.IgG1.SDIE, ABC025-H2G.SDIE and ABC080.chH2.SDIE to human PBMC-derived activated Treg cells. ABC138-H2.hu13.IgG1.SDIE was developed by mutagenesis in the light chain CDRs of ABC025.H2G.SDIE, which is the humanized clone of ABC080.chH2.SDIE.

[13] = target: T2, Human CCR8 (C-C chemokine receptor type …); test: cell-based or functional assay; remark: listed apart in the source

B1: ABC822 (antibody, human IgG1, kappa, V domains shown)
VH: EVQLVESGGGLMQPGRSLKLSCAASGFSFSDYYMAWVRQAPKKGLEWVASISNAGTKTYYGDSVKGRFTISRDDAKSTLYLQMNSLRSEDTATYYCVRQDLYYGRNQYWYFDFWGPGTMVTVSS
VL: IVMTQSPTSMSKSVGDRVTMNCKASQSVGSNVDWYQQKTGQSPKLLIYKTSSRFTGVPDRFTGSGSRTDFTFTISSMQAEDLALYYCVQSNSYPYTFGAGTKLELKR
With B1 the binding result [1] was “no binding”, the EC50 [2] was 3160 pM and the EC50 [3] was 269 pM. The EC50 [4] was 93.8 pM, the EC50 [5] was 464 pM and the EC50 [6] was 68.4 pM. For the same binder, the “ADCC killing of Jurkat-cynoCCR8 cells, IC50 (pM)” value [7] was 7.19 pM, the “ADCC killing of Jurkat-hCCR8 cells, IC50 (pM)” value [8] was 9.68 pM and the “ADCC killing of Hut78 cells, IC50 (pM)” value [9] was 6.31 pM. The EC50 [10] was 2920 pM.

B2: ABC048-B1.hu11.IgG1.SDIE (antibody, V domains shown)
VH: EVQLVESGGGLVQPGGSLKLSCAASGFTFNTYAMNWVRQASGKGLEWVARIRSKSNNYATYYADSVKDRFTISRDDSKNTLYLQMNSLKTEDTAVYYCVREVRRDYALDQWGQGTMVTVSS
VL: DIVMTQSPLSLPVTPGEPASISCRSSKSLLHSNGNTYLYWFLQKPGQSPQLLIYRMSNLASGVPDRFSGSGSGTDFTLKISRVEAEDVGVYYCMQHVEYPFTFGGGTKLEIKR
notes: IgG1 with SDIE mutations, by its name; also called ABC048-B1.hull.IgG1.SDIE
B2 showed an EC50 [11] of 521 pM.

B3: ABC025-H2G.SDIE (antibody, human IgG1, kappa)
heavy: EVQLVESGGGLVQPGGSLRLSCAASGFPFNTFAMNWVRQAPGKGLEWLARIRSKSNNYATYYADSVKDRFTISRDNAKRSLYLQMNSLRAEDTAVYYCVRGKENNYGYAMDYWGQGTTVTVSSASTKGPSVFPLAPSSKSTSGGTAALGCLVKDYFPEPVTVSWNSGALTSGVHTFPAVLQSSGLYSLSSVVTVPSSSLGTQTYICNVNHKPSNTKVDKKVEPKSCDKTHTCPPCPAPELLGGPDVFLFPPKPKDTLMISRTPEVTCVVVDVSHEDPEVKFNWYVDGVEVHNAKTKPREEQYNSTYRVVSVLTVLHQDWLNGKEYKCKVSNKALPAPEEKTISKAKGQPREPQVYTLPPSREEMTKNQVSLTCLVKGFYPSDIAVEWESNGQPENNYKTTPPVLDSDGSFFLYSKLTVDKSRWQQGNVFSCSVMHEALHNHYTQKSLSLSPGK
light: DIVMTQSPLSLPVTPGEPASISCRSSQSLLHSNANTYLYWFLQKPGQSPQLLIYRMSNLASGVPDRFSGSGSGTDFTLKISRVEAEDVGVYYCMQHLEYPFTFGQGTKLEIKRTVAAPSVFIFPPSDEQLKSGTASVVCLLNNFYPREAKVQWKVDNALQSGNSQESVTEQDSKDSTYSLSSTLTLSKADYEKHKVYACEVTHQGLSSPVTKSFNRGEC
notes: Humanized clone of ABC080.chH2.SDIE; Fc with SDIE mutation
In the case of B3, the EC50 [12] is reported as 380 pM and the EC50 [11] is reported as 1780 pM.

B4: ABC138-H2.hu13.IgG1.SDIE (antibody, V domains shown)
VH: EVQLVESGGGLVQPGGSLRLSCAASGFPFNTFAMNWVRQAPGKGLEWLARIRSKSNNYATYYADSVKDRFTISRDNAKRSLYLQMNSLRAEDTAVYYCVRGKENNYGYAMDYWGQGTTVTVSS
VL: DIVMTQSPLSLPVTPGEPASISCRSSKSLLHSNANTYLYWFLQKPGQSPQLLIYRMSNLASGVPDRFSGSGSGTDFTLKISRVEAEDVGVYYCMQHVEYPFTFGGGTKLEIKR
notes: Developed by mutagenesis in the light chain CDRs of ABC025.H2G.SDIE; IgG1 with SDIE mutations; also called ABC0138.H2.Hu13.SDIE
For B4, the binding result [1] was “no binding”, the EC50 [2] was 102 pM and the EC50 [12] was 105 pM. The binding result [4] was “no binding”, the EC50 [6] was 23.7 pM and the “ADCC killing of Jurkat-cynoCCR8 cells, IC50 (pM)” value [7] was 62.9 pM. For the same binder, the EC50 [11] was 579 pM, the “ADCC killing of Jurkat-hCCR8 cells, IC50 (pM)” value [8] was 2.09 pM and the “ADCC killing of Hut78 cells, IC50 (pM)” value [9] was 0.652 pM.

B5: ChH2-AF (antibody, human IgG1, kappa)
heavy: not shown
light: DIVMTQAAPSVPVTPGESVSISCRSSQSLLHSNGNTYLYWFLQRPGQSPQLLIYRMSNLASGVPDRFSGSGSGTAFTLRISRVEAEDVGVYYCMQHLEYPFTFGIGTKLELKRTVAAPSVFIFPPSDEQLKSGTASVVCLLNNFYPREAKVQWKVDNALQSGNSQESVTEQDSKDSTYSLSSTLTLSKADYEKHKVYACEVTHQGLSSPVTKSFNRGEC
With B5 the “ADCC killing of TALL-1 cells, Median EC50 (pM)” value [13] was 2.55 pM.

B6: ChB1-AF (antibody, human IgG1, kappa)
heavy: not shown
light: DIVMTQAAPSVVVTPGESVSISCRSSKSLLHSNGNTYLYWFLQRPGQSPQLLIYRMSNLASGVPDRFSGSGSGTAFTLRISRVEAEDVGVYYCMQHVEYPFTFGGGTKVQIKRTVAAPSVFIFPPSDEQLKSGTASVVCLLNNFYPREAKVQWKVDNALQSGNSQESVTEQDSKDSTYSLSSTLTLSKADYEKHKVYACEVTHQGLSSPVTKSFNRGEC
B6 was tested, and the “ADCC killing of TALL-1 cells, Median EC50 (pM)” value [13] was 9.8 pM.

B7: ABC080.chH2.SDIE (antibody)
heavy: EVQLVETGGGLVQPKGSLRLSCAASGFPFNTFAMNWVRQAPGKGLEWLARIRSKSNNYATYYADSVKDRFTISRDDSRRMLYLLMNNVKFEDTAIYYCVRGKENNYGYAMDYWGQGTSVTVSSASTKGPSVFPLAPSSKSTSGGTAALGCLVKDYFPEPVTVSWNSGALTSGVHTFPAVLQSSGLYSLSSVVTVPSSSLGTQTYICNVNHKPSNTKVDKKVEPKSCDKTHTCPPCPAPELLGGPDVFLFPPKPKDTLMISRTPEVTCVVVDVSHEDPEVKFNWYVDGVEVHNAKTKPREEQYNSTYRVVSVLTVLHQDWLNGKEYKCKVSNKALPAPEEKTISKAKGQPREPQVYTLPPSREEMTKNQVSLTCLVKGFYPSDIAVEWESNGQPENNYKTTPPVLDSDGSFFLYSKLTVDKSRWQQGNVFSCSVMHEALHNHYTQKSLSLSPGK
light: DIVMTQAAPSVPVTPGESVSISCRSSQSLLHSNGNTYLYWFLQRPGQSPQLLIYRMSNLASGVPDRFSGSGSGTAFTLRISRVEAEDVGVYYCMQHLEYPFTFGIGTKLELKRTVAAPSVFIFPPSDEQLKSGTASVVCLLNNFYPREAKVQWKVDNALQSGNSQESVTEQDSKDSTYSLSSTLTLSKADYEKHKVYACEVTHQGLSSPVTKSFNRGEC
notes: Chimeric antibody with SDIE Fc; ABC025.H2G.SDIE is its humanized clone
B7 was tested, and the EC50 [12] was 380 pM and the EC50 [6] was 135 pM.

B8: ABC078.AF (antibody, human IgG1, kappa, V domains shown)
VH: QVQLVQSGAEVKKPGASVKVSCKASGYTFTDSEMHWVRQATGQGLEWMGAIQPETGGTAYNQKFKARVTMTRDTSISTAYMELSSLRSEDTAVYYCARRRRNFDYWGQGTLVTVSS
VL: DIVMTQTPLSLSVTPGQPASISCRSSQSLFHSSGNTYLHWYLQKPGQPPQLLIYKVSNRFSGVPDRFSGSGSGTDFTLKISRVEAEDVGVYYCSQSTHVPFTFGQGTKLEIKR
notes: Prior art antibody (PCT/US2021/023430); also called BMS-986340
For B8, the “ADCC killing of Jurkat-cynoCCR8 cells, IC50 (pM)” value [7] was 346 pM, the EC50 [11] was 729 pM and the “ADCC killing of Jurkat-hCCR8 cells, IC50 (pM)” value [8] was 2.79 pM. For the same binder, the “ADCC killing of Hut78 cells, IC50 (pM)” value [9] was 0.637 pM.

B9: ABC1183 (antibody, human IgG1, kappa, V domains shown)
VH: EVQLLESGGGLVQPGGSLRLSCAASGFSFSDYYMAWVRQAPGKGLEWVASISNAGTKTYYGDSVKGRFTISRDDSKNTLYLQMNSLRAEDTAVYYCVRQDLYYGRNQYWYFDFWGRGTLVTVSS
VL: DIQMTQSPSSLSASVGDRVTITCKASQSVGSNVDWYQQKPGKSPKLLIYKTSSRFTGVPSRFSGSGSRTDFTLTISSLQPEDFATYYCVQSNSYPYTFGAGTKLELKR
notes: Humanized format of ABC822
B9 was tested, and the binding result [1] was “no binding”, the EC50 [3] was 373 pM and the EC50 [5] was 445 pM. The “ADCC killing of Jurkat-cynoCCR8 cells, IC50 (pM)” value [7] was 6.15 pM, the “ADCC killing of Jurkat-hCCR8 cells, IC50 (pM)” value [8] was 1.8 pM and the “ADCC killing of Hut78 cells, IC50 (pM)” value [9] was 7.95 pM. It also gave an EC50 [10] of 4120 pM.

B10: ABC084.AF (antibody, human IgG1, kappa, V domains shown)
VH: EVQLLESGGGLVQPGGSLRLSCAASGFTFSSYGMHWVRQAPGKGLEWVSAINWNGGSTGYADSVKGRFTISRDNSKNTLYLQMNSLRAEDTAVYYCARGHHSGYDGRFFDYWGQGTLVTVSS
VL: QSVLTQPPSVSGAPGQRVTISCTGSSSNIGAGYNVHWYQQLPGTAPKLLIYTNNRRPSGVPDRFSGSKSGTSASLAISGLRSEDEADYYCAAWDASLSGWVFGGGTKLTVLR
notes: Prior art antibody (PCT/EP2021/067504)
In the case of B10, the EC50 [11] is reported as 33800 pM.
